Assay results as given in the supplement of paper PMC10065799, “High-throughput profiling of sequence recognition by tyrosine kinases and SH2 domains using bacterial peptide display” (eLife, 2023).

Columns and labels:
Fes = Fes (UniProt P07332); test: phosphorylation enrichment, bacterial display (enrichment ratio); higher = better substrate or ligand; peptides without Tyr show the background
AncSZ = test: as above
c-Abl (mouse) = test: as above
Fyn = Fyn (UniProt P06241); test: as above
Jak2 = Jak2 (UniProt O60674); test: as above
Sequence of Jak2 (O60674 whole entry, looked up): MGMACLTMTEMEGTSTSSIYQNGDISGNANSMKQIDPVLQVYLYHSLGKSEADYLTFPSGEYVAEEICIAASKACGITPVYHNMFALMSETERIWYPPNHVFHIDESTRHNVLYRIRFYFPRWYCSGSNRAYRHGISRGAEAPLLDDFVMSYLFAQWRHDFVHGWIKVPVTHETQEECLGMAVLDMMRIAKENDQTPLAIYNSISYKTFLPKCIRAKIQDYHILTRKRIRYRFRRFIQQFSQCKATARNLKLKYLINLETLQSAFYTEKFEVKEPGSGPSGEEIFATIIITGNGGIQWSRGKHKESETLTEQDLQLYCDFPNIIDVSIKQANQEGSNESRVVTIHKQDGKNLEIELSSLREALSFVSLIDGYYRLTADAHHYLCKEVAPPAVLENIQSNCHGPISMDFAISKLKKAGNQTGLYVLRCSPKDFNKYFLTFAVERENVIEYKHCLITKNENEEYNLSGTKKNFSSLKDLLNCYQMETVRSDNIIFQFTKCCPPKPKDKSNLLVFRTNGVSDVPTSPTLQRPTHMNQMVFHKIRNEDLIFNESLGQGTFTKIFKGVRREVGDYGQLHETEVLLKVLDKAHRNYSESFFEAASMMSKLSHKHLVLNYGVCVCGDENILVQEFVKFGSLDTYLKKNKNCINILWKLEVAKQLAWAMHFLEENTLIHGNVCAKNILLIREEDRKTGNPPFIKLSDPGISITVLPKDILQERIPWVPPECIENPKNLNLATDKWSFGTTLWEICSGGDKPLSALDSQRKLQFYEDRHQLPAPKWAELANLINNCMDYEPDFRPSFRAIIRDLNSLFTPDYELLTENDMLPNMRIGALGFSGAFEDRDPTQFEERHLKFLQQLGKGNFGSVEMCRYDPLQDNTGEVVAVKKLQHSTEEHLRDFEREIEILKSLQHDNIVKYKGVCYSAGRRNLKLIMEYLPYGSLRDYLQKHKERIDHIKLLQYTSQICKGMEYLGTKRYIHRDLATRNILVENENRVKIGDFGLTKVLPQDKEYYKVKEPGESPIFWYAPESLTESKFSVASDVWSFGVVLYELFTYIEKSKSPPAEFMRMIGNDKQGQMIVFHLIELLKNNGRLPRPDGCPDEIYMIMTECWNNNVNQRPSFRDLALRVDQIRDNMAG

EPHB2 = EPHB2 (UniProt P29323); test: as above
FGFR1 = FGFR1 (UniProt P11362); test: as above
Sequence of FGFR1 (P11362 whole entry, looked up): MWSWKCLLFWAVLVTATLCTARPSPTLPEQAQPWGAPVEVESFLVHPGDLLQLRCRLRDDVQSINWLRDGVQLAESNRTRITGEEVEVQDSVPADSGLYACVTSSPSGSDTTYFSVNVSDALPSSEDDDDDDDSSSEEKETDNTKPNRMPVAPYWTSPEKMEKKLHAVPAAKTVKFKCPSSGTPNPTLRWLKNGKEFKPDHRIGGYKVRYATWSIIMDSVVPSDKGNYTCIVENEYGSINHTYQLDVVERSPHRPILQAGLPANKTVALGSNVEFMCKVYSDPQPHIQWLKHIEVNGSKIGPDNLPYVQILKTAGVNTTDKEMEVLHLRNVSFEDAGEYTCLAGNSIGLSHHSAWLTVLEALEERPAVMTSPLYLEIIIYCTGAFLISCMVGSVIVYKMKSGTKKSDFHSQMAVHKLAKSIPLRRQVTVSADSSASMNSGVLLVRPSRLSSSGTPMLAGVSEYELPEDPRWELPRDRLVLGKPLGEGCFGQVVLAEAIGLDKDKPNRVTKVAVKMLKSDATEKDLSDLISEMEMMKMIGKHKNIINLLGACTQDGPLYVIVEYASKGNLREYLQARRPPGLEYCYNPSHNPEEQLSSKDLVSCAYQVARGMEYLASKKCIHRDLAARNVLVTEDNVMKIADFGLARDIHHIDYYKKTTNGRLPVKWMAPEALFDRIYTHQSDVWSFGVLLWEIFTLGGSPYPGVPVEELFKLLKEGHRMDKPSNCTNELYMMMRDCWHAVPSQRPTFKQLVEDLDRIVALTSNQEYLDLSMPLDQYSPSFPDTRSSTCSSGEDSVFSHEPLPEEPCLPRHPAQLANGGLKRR

MERTK = MERTK (UniProt Q12866); test: as above
Sequence of MERTK (Q12866 whole entry, looked up): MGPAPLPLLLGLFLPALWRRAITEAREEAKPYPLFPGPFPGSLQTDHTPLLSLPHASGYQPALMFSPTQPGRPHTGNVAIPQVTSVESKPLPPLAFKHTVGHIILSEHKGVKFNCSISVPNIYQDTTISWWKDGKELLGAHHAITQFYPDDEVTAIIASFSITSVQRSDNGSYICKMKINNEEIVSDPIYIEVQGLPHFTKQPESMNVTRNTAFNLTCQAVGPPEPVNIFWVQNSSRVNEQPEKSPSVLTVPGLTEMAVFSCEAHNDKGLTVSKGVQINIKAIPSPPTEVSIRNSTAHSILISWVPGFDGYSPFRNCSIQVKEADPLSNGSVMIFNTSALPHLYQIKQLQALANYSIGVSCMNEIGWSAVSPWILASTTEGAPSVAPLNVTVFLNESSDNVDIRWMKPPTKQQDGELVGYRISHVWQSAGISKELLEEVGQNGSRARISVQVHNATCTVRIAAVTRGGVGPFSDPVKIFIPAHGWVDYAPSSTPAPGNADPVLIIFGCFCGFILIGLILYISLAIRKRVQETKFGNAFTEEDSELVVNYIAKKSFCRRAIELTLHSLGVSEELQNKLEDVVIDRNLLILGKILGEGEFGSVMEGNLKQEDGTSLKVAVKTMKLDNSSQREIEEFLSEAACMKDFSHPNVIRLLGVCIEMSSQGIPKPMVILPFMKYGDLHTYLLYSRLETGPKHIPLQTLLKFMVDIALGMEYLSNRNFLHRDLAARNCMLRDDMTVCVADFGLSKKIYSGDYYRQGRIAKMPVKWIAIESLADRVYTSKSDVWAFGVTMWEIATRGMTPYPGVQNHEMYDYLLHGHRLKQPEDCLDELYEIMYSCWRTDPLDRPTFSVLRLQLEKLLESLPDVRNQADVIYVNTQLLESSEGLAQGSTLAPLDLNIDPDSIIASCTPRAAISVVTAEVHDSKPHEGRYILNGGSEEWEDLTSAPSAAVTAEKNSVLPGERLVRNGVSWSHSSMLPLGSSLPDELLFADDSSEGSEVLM

Hck = Hck (UniProt P08631); test: as above
Sequence of Hck (P08631 whole entry, looked up): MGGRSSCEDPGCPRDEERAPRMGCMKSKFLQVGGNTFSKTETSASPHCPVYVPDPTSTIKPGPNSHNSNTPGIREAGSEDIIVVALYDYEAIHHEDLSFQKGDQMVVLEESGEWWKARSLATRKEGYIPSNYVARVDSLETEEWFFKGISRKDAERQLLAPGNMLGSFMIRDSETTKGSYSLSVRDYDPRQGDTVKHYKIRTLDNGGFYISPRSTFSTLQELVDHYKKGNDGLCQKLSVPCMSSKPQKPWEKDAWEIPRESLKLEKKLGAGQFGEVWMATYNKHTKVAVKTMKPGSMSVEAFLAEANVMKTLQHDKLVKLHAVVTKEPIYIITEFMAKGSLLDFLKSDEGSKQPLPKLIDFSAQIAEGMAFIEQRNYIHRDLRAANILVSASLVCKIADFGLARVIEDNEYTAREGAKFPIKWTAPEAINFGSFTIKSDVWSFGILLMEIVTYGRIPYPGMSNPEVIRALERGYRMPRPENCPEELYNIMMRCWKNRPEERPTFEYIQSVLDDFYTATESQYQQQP

Fer (mouse) = test: as above
c-Src = test: as above
EPHB1 = EPHB1 (UniProt P54762); test: as above
FGFR3 = FGFR3 (UniProt P22607); test: as above
Sequence of FGFR3 (P22607 whole entry, looked up): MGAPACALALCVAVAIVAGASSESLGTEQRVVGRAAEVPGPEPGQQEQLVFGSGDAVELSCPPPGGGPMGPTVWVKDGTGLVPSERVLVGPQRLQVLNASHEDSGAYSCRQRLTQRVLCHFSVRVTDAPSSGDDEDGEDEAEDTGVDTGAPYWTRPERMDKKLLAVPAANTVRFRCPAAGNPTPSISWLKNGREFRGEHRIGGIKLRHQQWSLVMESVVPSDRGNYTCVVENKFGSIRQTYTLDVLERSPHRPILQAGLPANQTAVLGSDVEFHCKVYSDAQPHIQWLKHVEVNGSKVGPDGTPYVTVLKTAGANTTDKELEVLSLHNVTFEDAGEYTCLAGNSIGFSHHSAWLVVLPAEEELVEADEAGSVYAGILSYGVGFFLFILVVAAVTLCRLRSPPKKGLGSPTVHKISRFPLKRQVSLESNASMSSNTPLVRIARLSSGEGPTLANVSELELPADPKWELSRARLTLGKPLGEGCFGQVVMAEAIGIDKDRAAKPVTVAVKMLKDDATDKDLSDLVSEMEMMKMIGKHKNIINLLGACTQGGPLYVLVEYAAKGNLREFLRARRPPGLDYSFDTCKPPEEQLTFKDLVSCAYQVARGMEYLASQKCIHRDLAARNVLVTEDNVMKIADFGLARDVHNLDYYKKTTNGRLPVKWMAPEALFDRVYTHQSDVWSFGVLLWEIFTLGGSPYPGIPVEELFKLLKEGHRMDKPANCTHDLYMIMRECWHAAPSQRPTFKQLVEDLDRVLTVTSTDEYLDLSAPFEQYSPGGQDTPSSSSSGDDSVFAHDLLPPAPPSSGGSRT

Grb2 SH2 = Grb2 SH2 (UniProt P62993); test: SH2 binding enrichment of the phosphorylated peptide, bacterial display (enrichment ratio); higher = better substrate or ligand; peptides without Tyr show the background
Sequence of Grb2 SH2 (P62993 whole entry, looked up): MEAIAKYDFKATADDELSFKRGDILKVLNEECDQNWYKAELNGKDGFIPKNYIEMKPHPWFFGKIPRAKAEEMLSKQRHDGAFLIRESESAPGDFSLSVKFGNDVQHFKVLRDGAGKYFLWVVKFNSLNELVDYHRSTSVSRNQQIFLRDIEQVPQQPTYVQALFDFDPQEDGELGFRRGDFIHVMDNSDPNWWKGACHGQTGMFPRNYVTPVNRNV

SHP2-C SH2 = test: as above
c-Src SH2 = test: as above
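For SH2 binding enrichment of the phosphorylated peptide, bacterial display in this document: peptide library displayed on the E. coli surface as eCPX fusions, selected cells deep-sequenced, score is each peptide's frequency after selection divided by its frequency in the input.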
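For phosphorylation enrichment, bacterial display in this document: 11-residue human phosphosite peptides and single-mutation variants displayed on the E. coli surface, counted by deep sequencing, each peptide's frequency after selection divided by its frequency in the unselected input library; frequency after pTyr selection over input frequency; kinase dosed for 20-30% of maximal phosphorylation in three min.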

Sequence of Fyn (P06241 whole entry, looked up): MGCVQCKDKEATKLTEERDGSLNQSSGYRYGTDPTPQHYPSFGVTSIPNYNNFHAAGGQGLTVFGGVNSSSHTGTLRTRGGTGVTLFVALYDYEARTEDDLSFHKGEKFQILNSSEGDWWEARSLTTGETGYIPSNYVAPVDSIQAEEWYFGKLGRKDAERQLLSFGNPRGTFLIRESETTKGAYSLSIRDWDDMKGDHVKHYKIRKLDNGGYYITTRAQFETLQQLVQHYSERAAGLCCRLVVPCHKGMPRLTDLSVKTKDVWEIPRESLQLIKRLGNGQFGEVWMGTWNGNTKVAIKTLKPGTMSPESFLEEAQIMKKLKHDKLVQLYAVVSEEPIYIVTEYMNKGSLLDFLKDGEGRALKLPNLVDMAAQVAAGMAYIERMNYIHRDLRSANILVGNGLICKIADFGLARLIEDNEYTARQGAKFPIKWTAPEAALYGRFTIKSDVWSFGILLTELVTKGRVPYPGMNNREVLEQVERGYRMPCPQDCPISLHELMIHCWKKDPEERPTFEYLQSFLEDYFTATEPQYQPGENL

Sequence	phosphorylation enrichment (Fes)	phosphorylation enrichment (AncSZ)	phosphorylation enrichment (c-Abl (mouse))	phosphorylation enrichment (Fyn)	phosphorylation enrichment (Jak2)	phosphorylation enrichment (EPHB2)	phosphorylation enrichment (FGFR1)	phosphorylation enrichment (MERTK)	phosphorylation enrichment (Hck)	phosphorylation enrichment (Fer (mouse))	phosphorylation enrichment (c-Src)	phosphorylation enrichment (EPHB1)	phosphorylation enrichment (FGFR3)	SH2 binding enrichment (Grb2 SH2)	SH2 binding enrichment (SHP2-C SH2)	SH2 binding enrichment (c-Src SH2)
PLLEFYWDIFT [CDAN1_Y713_R714W_YF]	1.2	0.971	0.828	0.448	1.17	0.645	0.428	0.284	0.458	0.527	0.412	0.833	0.94	0.926	0.719	0.527
SRGSSYSSIPK [FLNC_Y2625]	0.518	0.474	0.428	0.358	0.498	0.322	0.479	0.489	0.381	0.37	0.444	0.304	0.362	0.769	0.563	1.02
KTVQDYLEKFF [MMP8_Y36_YF]	1.28	1.14	0.874	0.519	0.986	0.602	0.643	0.514	0.502	0.485	0.446	0.504	0.692	0.953	0.719	0.64
LFLALYTGLVR [PIGB_Y402_H407R]	1.24	1.31	0.896	0.82	1.18	0.573	0.452	0.759	1.59	0.539	1.66	0.628	0.747	1.53	1.02	1.01
FLGRDYLETLM [DUS3L_Y610_YF]	0.957	0.849	0.685	0.422	0.748	0.459	0.48	0.471	0.401	0.591	0.428	0.47	0.686	0.878	0.96	0.563
IFCIQYNIRAF [MYH4_Y820]	1.76	1.57	1.35	0.445	1.57	0.678	0.525	0.436	0.608	0.596	0.599	0.821	1.08	1.08	1.07	0.685
VSNFNYFFHRE [KCNA1_Y413_YF]	1.22	1.12	0.831	0.454	0.969	0.509	0.685	0.45	0.506	0.472	0.445	0.642	0.885	1.35	1.39	0.79
LHQSTYQCYDV [SLC7A14_Y693_R695C]	1.53	1.82	1.35	3.95	1.31	2.85	1.12	1.06	2.78	2.84	5.21	2.12	1.2	0.756	0.513	0.536
SIKDKYLTALY [KCNH2_Y611_V612L]	0.707	0.727	0.487	0.56	0.624	0.452	0.417	0.439	0.651	0.44	0.623	0.456	0.546	0.968	0.634	0.565
VFGVSYDEYRY [CFTR_Y512_I507V]	0.959	1.01	0.566	0.802	0.761	0.465	0.434	0.477	0.712	0.453	1.31	0.538	0.604	0.781	0.72	1.38
RRMLQYLTVND [PPFIBP2_Y663]	0.862	0.803	0.691	0.501	0.882	0.584	0.63	0.475	0.686	0.456	0.486	0.417	0.632	0.994	0.976	0.51
CHKRTYKVTGL	0.667	0.587	0.564	0.417	0.657	0.357	0.362	0.375	0.401	0.398	0.455	0.405	0.465	1.13	0.898	1.07
FVHDNYVIWRT [CPS1_Y1450_R1453W]	1.16	1.28	1.14	0.577	1.11	7.37	2.79	1.45	1.26	1.26	0.721	6.57	1.8	1.11	0.847	0.827
NNHGNYIVRLG [ETFDH_Y172]	0.723	0.619	0.667	0.5	0.702	0.563	0.456	0.416	0.481	0.438	0.547	0.548	0.595	0.889	0.991	0.781
PMQLPHDSTWE [PDGFRB_Y589_Y589H]	1.96	2.22	1.61	0.582	1.34	0.776	0.66	0.531	0.78	0.737	0.628	0.829	1.23	0.679	0.555	0.383
SQKRKYIEIDS [SDAD1_Y580]	0.614	0.818	0.613	0.451	0.701	0.414	0.463	0.571	0.475	0.394	0.507	0.463	0.376	0.856	1.04	2.09
DTNIAYWLHPR [POMT1_Y581]	0.763	0.762	0.473	0.64	0.813	0.44	1.84	0.803	0.633	0.373	0.717	0.433	1.23	1.03	1.08	0.561

Sequence	phosphorylation enrichment (Fes)	phosphorylation enrichment (AncSZ)	phosphorylation enrichment (c-Abl (mouse))	phosphorylation enrichment (Fyn)	phosphorylation enrichment (Jak2)	phosphorylation enrichment (EPHB2)	phosphorylation enrichment (FGFR1)	phosphorylation enrichment (MERTK)	phosphorylation enrichment (Hck)	phosphorylation enrichment (Fer (mouse))	phosphorylation enrichment (c-Src)	phosphorylation enrichment (EPHB1)	phosphorylation enrichment (FGFR3)	SH2 binding enrichment (Grb2 SH2)	SH2 binding enrichment (SHP2-C SH2)	SH2 binding enrichment (c-Src SH2)
SVQVEYMKTIL [GLYATL2_Y127_D126E]	0.893	0.643	0.484	0.413	0.612	0.476	0.437	0.429	0.469	0.425	0.376	0.41	0.578	0.712	0.777	0.72
VPLATYMRIFK [RPL21_Y30_YF]	0.881	0.733	0.477	0.462	0.614	0.425	0.408	0.35	0.537	0.406	0.486	0.406	0.501	0.602	0.546	0.535
DDPRRYQKYGY [OAS1_Y362]	0.591	0.598	0.592	0.426	0.507	0.544	0.414	0.368	0.499	0.403	0.438	0.368	0.446	1.05	1.3	0.894
QRKRAYVEIEF [MAK16_Y282_YF]	1.42	0.926	0.631	0.655	0.723	0.594	0.617	0.643	0.398	0.48	0.63	0.838	0.785	1.55	2.48	3.17
DPHKIYEFVNS [IRF3_Y107]	7.43	0.984	4.23	9.53	0.729	19.2	1.77	10.3	10.3	18.1	8.03	18.2	1.51	0.902	0.766	0.609
QWRTKYETDTI [MYH7_Y1375_A1379T]	1.49	0.819	0.798	0.489	1.56	0.797	0.473	0.414	0.624	0.5	0.56	0.616	0.757	0.769	0.735	0.485
DVAKEYGHLLP [HRC_Y99_S96A]	0.822	0.723	0.555	0.422	0.781	0.512	0.436	0.402	0.547	0.403	0.52	0.517	0.522	0.984	0.604	0.429
FFLGAYDRFLP [SLC22A5_Y486_V481F_YF]	1.46	1.5	0.842	1.99	1.02	1.13	0.503	3.38	3.38	1.04	3.75	0.756	0.782	1.15	1.74	1.25
PIQLFYTRRNT [GHR_Y86]	1.13	1.18	0.738	0.938	0.713	0.775	0.982	0.691	0.957	0.913	0.919	0.766	0.884	0.74	0.594	0.492
QDDFSYPSRQM [LDLR_Y847_G844D_YF]	0.826	0.791	0.609	0.414	0.674	0.575	0.425	0.497	0.575	0.492	0.403	0.549	0.704	0.851	0.892	0.54
DGQSVYKLTDF [TBK1_Y153]	0.775	0.725	0.444	2.52	0.765	0.37	0.434	0.471	0.751	0.775	3.06	0.426	0.474	0.678	0.683	0.513
FHIDHYLGKEM [G6PD_Y202_R198H_YF]	0.688	0.556	0.415	0.39	0.467	0.553	0.53	0.331	0.503	0.342	0.334	0.438	0.481	1.33	0.787	0.778
EEKKKYFDAKI [CASP5_Y103_T106A_YF]	0.818	0.798	0.58	0.4	0.684	0.43	0.488	0.501	0.442	0.401	0.479	0.385	0.464	1.01	0.672	0.446
KVKPIYFRTQG [AR_Y916_H918R]	0.644	0.701	0.626	0.404	0.491	0.396	0.475	0.401	0.495	0.477	0.454	0.356	0.448	1.63	1.76	1.51
EVVGGYSVHNA [MLH1_Y183_R182G]	0.729	0.528	0.643	0.324	0.504	0.314	0.339	0.369	0.44	0.372	0.336	0.306	0.599	0.951	0.537	0.437
KLFFHYNPKLC [INSR_Y457]	1.41	1.25	0.855	0.384	1.47	0.568	0.534	0.383	0.562	0.566	0.428	0.631	0.777	1.12	1.18	0.712
QNTGGYFDLFG [PTPN11_Y62_D61G_YF]			0.27		1.26											
